{"source": "paper PMC11840766", "about": "(ACS Omega, 2025)", "target": "T1, extracellular protein domain (position 43-300) of human CD38 (Homo sapiens, UniProt P28907)", "T1 construct": "human CD38, extracellular domain, position 43-300; also called CD38 (extracellular domain); source: kindly provided by Dr. Hanna Tegel", "test": "SPR; ProteOn XPR36; scFv_(CD38) sortase-coupled to a G5-silk coating on bare gold outside the instrument; CD38 extracellular domain (printed: 200 mM) in PBS pH 7.4/0.01% Tween 20 flown at 25 uL/min, 30 min", "settings": "both partners purified", "data": [{"binder": "scFv_(CD38)-silk (scFv_(CD38) sortase-coupled to the N-terminus of G5-FN-4RepCT), as silk coating (scFv, V domains shown, VH of the anti-CD38 scFv; 3xG4S linker, written out from the printed name; VL of the anti-CD38 scFv; what is left of the sortase recognition tag LPETGG after sortase A cleaves between threonine and glycine; the five N-terminal glycines of G5-silk, told in words; 4RepCT, a miniature form of the major ampullate spidroin 1 (MaSp 1) from Euprosthenops australis; The GG-His6 end is lost on coupling; …) VH: QVQLVQSGAEVKKPGSSVKVSCKPSGGTFRSYAISWVRQAPGQGLEWMGRIIVFLGKVNYAQRFQGRVTLTADKSTTTAYMELSSLRSEDTAVYYCTGEPGARDPDAFDIWGQGTMVTVSS VL: DIQMTQSPSSLSASVGDRVTITCRASQGIRSWLAWYQQKPEKAPKSLIYAASSLQSGVPSRFSGSGSGTDFTLTISSLQPEDFATYYCQQYNNYPLTFGGGTKVEIK", "values": [{"measurement": "binding result", "value": "binds"}]}]}
